# According to patent US20220323445A1, “REDUCING IMMUNOGENICITY TO PEGLOTICASE” (Horizon Therapeutics Ireland DAC, priority 2020, published 2022):
# B1: pegloticase (protein)
# chain: TYKKNDEVEFVRTGYGKDMIKVLHIQRDGKYHSIKEVATTVQLTLSSKKDYLHGDNSDVIPTDTIKNTVNVLAKFKGIKSIETFAVTICEHFLSSFKHVIRAQVYVEEVPWKRFEKNGVKHVHAFIYTPTGTHFCEVEQIRNGPPVIHSGIKDLKVLKTTQSGFEGFIKDQFTTLPEVKDRCFATQVYCKWRYHQGRDVDFEATWDTVRSIVLQKFAGPYDKGEYSPSVQKTLYDIQVLTLGQVPEIEDMEISLPNIHYLNIDMSKMGLINKEEVLLPLDNPYGKITGTVKRKLSSRL
# modifications: monomethoxy PEG conjugated; Krystexxa Sequence
# notes: covalent conjugate of uricase produced by a genetically modified strain of Escherichia coli and monomethoxypoly (ethylene glycol)
# Test system: patients with uncontrolled gout
# Test: Health Assessment Questionnaire (HAQ-DI, HAQ pain, HAQ health), open-label study
# Type: in vivo, human
# Design: key to HAQ-Health, Observed, Median / HAQ-Health, Change from Baseline, Median: 0-100 scale; 0 = very well, 100 = very poor health; key to HAQ-DI, Observed, Median / HAQ-DI, Change from Baseline, Median: HAQ-DI scale 0-3; 0 = no difficulty, 3 = unable to do
# Conditions: mITT
# Method: Quality-of-Life Assessment: The HAQ was administered at the Screening and Week −4 or week −6 (prior to the first dose of MTX) Visits during the MTX Run-in Period for the open-label and randomized studies, respectively; prior to pegloticase infusion at the Day 1 and Weeks 14, 24 and 36 Visits or at the Day 1 and weeks 6, 14, 20, 24, 30, 36, and 44 visits during the Pegloticase+IMM Period for the open-label and randomized studies, respectively; at the End of Pegloticase Infusions Visit (if applicable), the Week 52/End of Study/Early Termination Visit and the Post Treatment Periods 3 and 6 Month Follow-up Visits (open-label study). The HAQ-DI is a self-report functional status instrument that can be filled out by a subject in less than 5 minutes and requires 1 minute to score. The index measures disability over the past week by asking a total of 20 questions covering 8 domains of function: dressing and grooming, arising, eating, walking, hygiene, reach, grip, and usual activities. There are at least 2 questions in each domain and the 8 domains represent a comprehensive set of functional activities. The HAQ-DI is calculated by scoring the answer to each question in the HAQ from 0 to 3, with 0 representing the ability to do without any difficulty, and 3 representing inability to do. Any activity that requires assistance from another individual or requires the use of an assistive device raises a 0 or 1 score to a 2. The highest score for each of the 8 domains is summed (range from 0 to 24) and divided by 8 to yield, on a scale with 25 possible values, a Functional Disability Index with a range from 0 to 3. The disability index is based on the number of domains answered and is computed only if the subject completes answers to at least 6 domains. The HAQ pain scale asks subjects to record how much pain they have had in the past week on a scale of 0 to 100, where zero represents “no pain” and 100 represents “severe pain”. The HAQ health scale is a measure of overall health. Subjects are asked to rate how well they are doing on a score of 0 to 100, where zero represents “very well” and 100 represents “very poor” health.
# [1] = Week 14 vs Pegloticase Baseline, n=14
# [2] = Week 24 vs Methotrexate Baseline, n=11
# [3] = Week 24 vs Pegloticase Baseline, n=11
# [4] = Week 36 vs Methotrexate Baseline, n=9
# [5] = Week 36 vs Pegloticase Baseline, n=9
# [6] = Week 52/ET vs Methotrexate Baseline, n=3
# [7] = Week 52/ET vs Pegloticase Baseline, n=3
molecule,measurement,setting,value
B1,"HAQ-DI, Change from Baseline, Mean (SD)",[1],−0.3 (0.80)
same,"HAQ-DI, Change from Baseline, Median",[1],0.0
same,"HAQ-Health, Change from Baseline, Mean (SD)",[1],−4.3 (43.82)
same,"HAQ-Health, Change from Baseline, Median",[1],−1.0
same,"HAQ-Pain, Change from Baseline, Mean (SD)",[1],−16.0 (30.65)
same,"HAQ-Pain, Change from Baseline, Median",[1],−12.5
same,"HAQ-DI, Observed, Mean (SD)","Week 24, n=11",0.2 (0.33)
same,"HAQ-DI, Observed, Median","Week 24, n=11",0.1
same,"HAQ-Health, Observed, Mean (SD)","Week 24, n=11",21.4 (26.65)
same,"HAQ-Health, Observed, Median","Week 24, n=11",10.0
same,"HAQ-Pain, Observed, Mean (SD)","Week 24, n=11",25.4 (27.50)
same,"HAQ-Pain, Observed, Median","Week 24, n=11",20.0
same,"HAQ-DI, Change from Baseline, Mean (SD)",[2],−0.5 (0.74)
same,"HAQ-DI, Change from Baseline, Median",[2],−0.1
same,"HAQ-Health, Change from Baseline, Mean (SD)",[2],−33.2 (36.01)
same,"HAQ-Health, Change from Baseline, Median",[2],−40.0
same,"HAQ-Pain, Change from Baseline, Mean (SD)",[2],−19.2 (35.13)
same,"HAQ-Pain, Change from Baseline, Median",[2],−10.0
same,"HAQ-DI, Change from Baseline, Mean (SD)",[3],−0.6 (0.85)
same,"HAQ-DI, Change from Baseline, Median",[3],−0.1
same,"HAQ-Health, Change from Baseline, Mean (SD)",[3],−19.7 (43.38)
same,"HAQ-Health, Change from Baseline, Median",[3],−10.0
same,"HAQ-Pain, Change from Baseline, Mean (SD)",[3],−16.7 (38.53)
same,"HAQ-Pain, Change from Baseline, Median",[3],−10.0
same,"HAQ-DI, Observed, Mean (SD)","Week 36, n=9",0.3 (0.49)
same,"HAQ-DI, Observed, Median","Week 36, n=9",0.1
same,"HAQ-Health, Observed, Mean (SD)","Week 36, n=9",27.3 (35.18)
same,"HAQ-Health, Observed, Median","Week 36, n=9",10.0
same,"HAQ-Pain, Observed, Mean (SD)","Week 36, n=9",21.0 (27.60)
same,"HAQ-Pain, Observed, Median","Week 36, n=9",10.0
same,"HAQ-DI, Change from Baseline, Mean (SD)",[4],−0.5 (0.80)
same,"HAQ-DI, Change from Baseline, Median",[4],0.0
same,"HAQ-Health, Change from Baseline, Mean (SD)",[4],−27.7 (42.59)
same,"HAQ-Health, Change from Baseline, Median",[4],−10.0
same,"HAQ-Pain, Change from Baseline, Mean (SD)",[4],−22.9 (28.41)
same,"HAQ-Pain, Change from Baseline, Median",[4],−20.0
same,"HAQ-DI, Change from Baseline, Mean (SD)",[5],−0.5 (0.86)
same,"HAQ-DI, Change from Baseline, Median",[5],−0.1
same,"HAQ-Health, Change from Baseline, Mean (SD)",[5],−16.2 (50.72)
same,"HAQ-Health, Change from Baseline, Median",[5],−10.0
same,"HAQ-Pain, Change from Baseline, Mean (SD)",[5],−19.9 (20.25)
same,"HAQ-Pain, Change from Baseline, Median",[5],−20.0
same,"HAQ-DI, Change from Baseline, Mean (SD)",[6],−0.6 (0.87)
same,"HAQ-DI, Change from Baseline, Median",[6],−0.1
same,"HAQ-Health, Change from Baseline, Mean (SD)",[6],−16.7 (59.23)
same,"HAQ-Health, Change from Baseline, Median",[6],15.0
same,"HAQ-Pain, Change from Baseline, Mean (SD)",[6],−42.7 (18.04)
same,"HAQ-Pain, Change from Baseline, Median",[6],−44.0
same,"HAQ-DI, Change from Baseline, Mean (SD)",[7],−0.8 (1.08)
same,"HAQ-DI, Change from Baseline, Median",[7],−0.1
same,"HAQ-Health, Change from Baseline, Mean (SD)",[7],23.3 (54.85)
same,"HAQ-Health, Change from Baseline, Median",[7],5.0
same,"HAQ-Pain, Change from Baseline, Mean (SD)",[7],−41.0 (25.24)
same,"HAQ-Pain, Change from Baseline, Median",[7],−29.0
same,"HAQ-DI, Observed, Mean (SD)","Week 52/ET, n=3",0.4 (0.29)
same,"HAQ-DI, Observed, Median","Week 52/ET, n=3",0.3
same,"HAQ-Health, Observed, Mean (SD)","Week 52/ET, n=3",60.0 (48.22)
same,"HAQ-Health, Observed, Median","Week 52/ET, n=3",80.0
same,"HAQ-Pain, Observed, Mean (SD)","Week 52/ET, n=3",4.0 (5.20)
same,"HAQ-Pain, Observed, Median","Week 52/ET, n=3",1.0
